# T1: human FcγRIIa type R (allotype R131) (human, UniProt P12318 36-217)
# T1 construct: also called FcγRIIaR; FcγRIIa(R)
# T1 chain: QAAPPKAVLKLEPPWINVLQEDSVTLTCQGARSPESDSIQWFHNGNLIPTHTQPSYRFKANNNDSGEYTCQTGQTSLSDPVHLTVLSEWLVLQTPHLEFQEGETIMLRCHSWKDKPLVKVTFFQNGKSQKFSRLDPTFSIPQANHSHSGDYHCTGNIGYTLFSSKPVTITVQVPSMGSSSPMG
# T2: human FcγRIIa type H (allotype H131) (human, UniProt P12318 36-217)
# T2 construct: also called FcγRIIaH; FcγRIIa(H)
# T2 sequence: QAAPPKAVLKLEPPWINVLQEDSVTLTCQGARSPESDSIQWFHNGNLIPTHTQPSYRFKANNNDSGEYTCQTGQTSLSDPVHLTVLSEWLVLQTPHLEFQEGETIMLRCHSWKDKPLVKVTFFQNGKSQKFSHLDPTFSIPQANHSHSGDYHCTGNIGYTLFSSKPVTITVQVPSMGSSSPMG
# T3: human FcγRIIb (human, UniProt P31994 43-217)
# T3 construct: also called FcγIIB
# T3 sequence: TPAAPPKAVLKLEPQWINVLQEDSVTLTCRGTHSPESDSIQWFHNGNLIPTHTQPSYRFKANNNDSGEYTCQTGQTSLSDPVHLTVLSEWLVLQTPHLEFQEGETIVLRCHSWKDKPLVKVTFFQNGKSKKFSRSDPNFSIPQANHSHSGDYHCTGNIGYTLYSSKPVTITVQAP
# T4: FcγRIIb (human, UniProt P31994 43-217, limits assumed)
# T4 construct: Soluble analyte in Biacore; also called FcgRIIb; FcγIIB
# T4 sequence: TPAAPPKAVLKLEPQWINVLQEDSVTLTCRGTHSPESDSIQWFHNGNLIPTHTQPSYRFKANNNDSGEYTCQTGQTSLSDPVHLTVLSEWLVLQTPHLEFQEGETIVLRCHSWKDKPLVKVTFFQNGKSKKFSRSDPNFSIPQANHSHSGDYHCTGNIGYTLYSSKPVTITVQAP
# T5: FcγRIIa type R (human, UniProt P12318 36-217)
# T5 construct: Soluble analyte in Biacore; also called FcγRIIaR; FcγRIIa(R)
# T5 chain: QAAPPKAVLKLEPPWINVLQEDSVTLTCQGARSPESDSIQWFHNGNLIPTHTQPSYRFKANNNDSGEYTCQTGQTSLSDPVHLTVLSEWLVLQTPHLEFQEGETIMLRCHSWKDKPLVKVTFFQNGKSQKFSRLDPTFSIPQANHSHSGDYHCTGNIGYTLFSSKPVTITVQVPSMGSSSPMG
# T6: FcγRIIa type H (human, UniProt P12318 36-217)
# T6 construct: Soluble analyte in Biacore; also called FcγRIIaH; FcγRIIa(H)
# T6 sequence: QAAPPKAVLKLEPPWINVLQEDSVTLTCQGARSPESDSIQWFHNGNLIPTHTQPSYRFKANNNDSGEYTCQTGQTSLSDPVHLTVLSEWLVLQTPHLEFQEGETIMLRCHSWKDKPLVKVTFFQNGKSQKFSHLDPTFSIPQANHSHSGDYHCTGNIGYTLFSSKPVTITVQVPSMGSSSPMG
# B1: IL6R-BP200/IL6R-L (antibody, human IgG1)
# heavy: QVQLQESGPGLVKPSETLSLTCAVSGHSISHDHAWSWVRQPPGEGLEWIGFISYSGITNYNPSLQGRVTISRDNSKNTLYLQMNSLRAEDTAVYYCARSLARTTAMDYWGEGTLVTVSSASTKGPSVFPLAPSSKSTSGGTAALGCLVKDYFPEPVTVSWNSGALTSGVHTFPAVLQSSGLYSLSSVVTVPSSSLGTQTYICNVNHKPSNTKVDKKVEPKSCDKTHTCPPCPAPDYLGDDSVFLFPPKPKDTLMISRTPEVTCVVVDVSHEDGEVKFNWYVDGVEVHNAKTKPREEQYNSTYRVVSVLTVLHQDWLNGKEYKCKVSNDALPRPIEKTISKAKGQPREPQVYTLPPSRDELTKNQVSLTCLVKGFYPSDIAVEWESNGQPENNYKTTPPVLDSDGSFFLYSKLTVDKSRWQQGNVFSCSVMHEALHNHYTQESLSLSP
# light: DIQMTQSPSSLSASVGDRVTITCRASQDISSYLNWYQQKPGKAPKLLIYYTSRLHSGVPSRFSGSGSGTDFTFTISSLQPEDIATYYCQQGNTLPYTFGQGTKVEIK
# notes: Anti-human IL-6 receptor human IgG1 variant; uncertain; copies: 2 + 2
# B2: IL6R-BP214/IL6R-L (antibody, human IgG1)
# heavy: QVQLQESGPGLVKPSETLSLTCAVSGHSISHDHAWSWVRQPPGEGLEWIGFISYSGITNYNPSLQGRVTISRDNSKNTLYLQMNSLRAEDTAVYYCARSLARTTAMDYWGEGTLVTVSSASTKGPSVFPLAPSSKSTSGGTAALGCLVKDYFPEPVTVSWNSGALTSGVHTFPAVLQSSGLYSLSSVVTVPSSSLGTQTYICNVNHKPSNTKVDKKVEPKSCDKTHTCPPCPAPDYLGDDSVFLFPPKPKDTLMISRTPEVTCVVVDVSHEDPEVKFNWYVDGVEVHNAKTKPREEQDNSTYRVVSVLTVLHQDWLNGKEYKCKVSNDALPKPIEKTISKAKGQPREPQVYTLPPSRDELTKNQVSLTCLVKGFYPSDIAVEWESNGQPENNYKTTPPVLDSDGSFFLYSKLTVDKSRWQQGNVFSCSVMHEALHNHYTQESLSLSP
# light: DIQMTQSPSSLSASVGDRVTITCRASQDISSYLNWYQQKPGKAPKLLIYYTSRLHSGVPSRFSGSGSGTDFTFTISSLQPEDIATYYCQQGNTLPYTFGQGTKVEIK
# notes: Anti-human IL-6 receptor IgG1 Fc variant
# B3: GpH7-B3 D265S/GpL16-k0 (antibody, human IgG1)
# heavy: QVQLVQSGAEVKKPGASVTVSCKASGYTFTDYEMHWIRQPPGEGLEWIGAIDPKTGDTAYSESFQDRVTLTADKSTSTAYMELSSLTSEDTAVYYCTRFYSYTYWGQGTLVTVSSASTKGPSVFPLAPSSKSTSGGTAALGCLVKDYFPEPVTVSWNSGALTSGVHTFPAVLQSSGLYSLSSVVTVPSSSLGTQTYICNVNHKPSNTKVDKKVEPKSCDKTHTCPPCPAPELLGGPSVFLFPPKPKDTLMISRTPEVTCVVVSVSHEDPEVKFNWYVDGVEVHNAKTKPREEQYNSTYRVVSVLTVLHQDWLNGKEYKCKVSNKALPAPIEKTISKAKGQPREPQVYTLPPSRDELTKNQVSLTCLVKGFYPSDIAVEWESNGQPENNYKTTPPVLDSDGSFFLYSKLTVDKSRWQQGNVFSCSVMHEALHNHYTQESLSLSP
# light: DIVMTQSPLSLPVTPGEPASISCQASESLVHSNRNTYLHWYLQKPGQSPQLLIYKVSNRFSGVPDRFSGSGSGTDFTLKISRVEAEDVGVYYCSQNTHVPPTFGQGTKVEIE
# notes: B3 variant of anti-glypican-3 IgG1; substitution in EU numbering; also called B3 variant
# Experiments:
# human FcγRIa = target: T7, human FcγRIa (human, UniProt P12314 16-292, limits assumed); assay: SPR (Biacore), antibody captured on the chip, FcγR as analyte
# T7 construct: also called CD64
# T7 sequence (P12314 16-292 limits assumed): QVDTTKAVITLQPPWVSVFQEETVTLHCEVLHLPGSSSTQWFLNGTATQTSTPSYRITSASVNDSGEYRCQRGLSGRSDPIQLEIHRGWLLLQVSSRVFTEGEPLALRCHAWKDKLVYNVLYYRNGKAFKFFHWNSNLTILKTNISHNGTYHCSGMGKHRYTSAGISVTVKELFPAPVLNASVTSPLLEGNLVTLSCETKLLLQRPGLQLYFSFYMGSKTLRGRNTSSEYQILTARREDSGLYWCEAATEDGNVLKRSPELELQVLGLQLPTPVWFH
# [1] = target: T1, human FcγRIIa type R (allotype R131); assay: as above
# [2] = target: T2, human FcγRIIa type H (allotype H131); assay: as above
# human FcγRIIb [3] = target: T3, human FcγRIIb; assay: as above
# human FcγRIIb [4] = target: T3, human FcγRIIb; assay: SPR (Biacore); KD of parent IL6R-B3/IL6R-L for FcγRIIb divided by KD of the variant for FcγRIIb
# Source text: Furthermore, KD(IIaR)/KD(IIb) and KD(IIaH)/KD(IIb) in the table respectively represent the value obtained by dividing the KD value of each variant for FcγRIIaR by the KD value of each variant for FcγRIIb, and the value obtained by dividing the KD value of each variant for FcγRIIaH by the KD value of each variant for FcγRIIb.
# FcγRIIb [5] = target: T4, FcγRIIb; assay: SPR (Biacore); ratio against the parent IL6R-B3/IL6R-L
# Procedure: (§1) Next, interaction between these antibodies and FcγR was analyzed kinetically using the Biacore T100 (GE Healthcare). The interaction was measured at a temperature of 25° C. using HBS-EP+ (GE Healthcare) for the running buffer. The Series S Sensor Chip CM5 (GE Healthcare) was used after immobilizing Protein A by amine coupling. […] Antibody captured on the chip was washed by allowing 10 mM glycine-HCl (pH 1.5) to react following measurement. The chip regenerated in this manner was used repeatedly. The dissociation constant KD (mol/L) was calculated from the association rate constant ka (L/mol/s) and dissociation rate constant kd (1/s) as calculated by global-fitting the measurement results with a 1:1 Langmuir binding model using the Biacore
# FcγRIa = target: T8, FcγRIa (human, UniProt P12314 16-292, limits assumed); assay: SPR (Biacore), antibody captured on chip, FcγR as analyte, method of Example 14
# T8 construct: Soluble analyte in Biacore; also called FcgRIa; CD64
# T8 sequence (P12314 16-292 limits assumed): as above
# Procedure: as §1
# FcγRIIa type R = target: T5, FcγRIIa type R; assay: as above
# Procedure: as §1
# FcγRIIa type H = target: T6, FcγRIIa type H; assay: as above
# Procedure: as §1
# FcγRIIb [6] = target: T4, FcγRIIb; assay: as above
# Procedure: as §1
# human FcγRIIIa(F) = target: T9, human FcγRIIIa(F) (human, UniProt P08637 17-208, limits assumed); assay: SPR (Biacore), captured antibody, FcγR analyte; bound/captured amount vs control x100
# T9 construct: also called FcgRIIIaF; FcγRIIIa allotype F158
# T9 sequence (P08637 other isoform, or with tags, fused parts or gaps limits assumed): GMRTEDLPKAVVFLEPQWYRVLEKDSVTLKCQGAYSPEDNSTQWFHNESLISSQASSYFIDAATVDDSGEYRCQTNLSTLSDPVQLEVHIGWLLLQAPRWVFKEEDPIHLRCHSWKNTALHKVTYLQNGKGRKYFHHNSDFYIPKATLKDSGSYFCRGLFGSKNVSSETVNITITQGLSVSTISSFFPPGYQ
# Procedure: Interaction between each modified antibody and Fcγ receptor prepared in the manner described above was analyzed using the Biacore T100 (GE Healthcare), Biacore T200 (GE Healthcare), Biacore A100 or Biacore 4000. HBS-EP+ (GE Healthcare) was used for the running buffer, and measurements were carried out at 25° C. The chips used were chips in which antigen peptides, Protein A (Thermo Scientific), Protein A/G (Thermo Scientific) or Protein L (ACTIGEN or BioVision) were immobilized on the Series S Sensor Chip CM5 (GE Healthcare) or Series S Sensor Chip CM4 (GE Healthcare) by amine coupling, or chips in which preliminarily biotinylated antigen peptides were allowed to interact and then immobilized on the Series S Sensor Chip SA (certified) (GE Healthcare). The target antibodies were captured on these sensor chips, Fcγ receptor diluted with the running buffer was allowed to interact, followed by measurement of the amount of bound antibody. The amounts bound were compared between antibodies. However, since the amount of Fcγ receptor bound depends on the amount of captured antibody, the values used for comparison were first corrected by dividing the amount of Fcγ receptor bound by the captured amount of each antibody. Through reaction with 10 mM glycine-HCl at pH 1.5, the sensor chips were regenerated by washing off antibody captured on the sensor chips and used repeatedly.
binder,measurement,setting,value
B1,Kd,human FcγRIa,33 nM
same,Kd,[1],630 nM
same,Kd,[2],4200 nM
same,Kd,human FcγRIIb [3],34 nM
same,KD(IIb) of the parent polypeptide/KD(IIb) of the altered polypeptide,human FcγRIIb [4],91.2
B2,KD(IIb) of the parent polypeptide/KD(IIb) of the altered polypeptide,FcγRIIb [5],26.2 fold
same,Kd,FcγRIa,59 nM
same,Kd,FcγRIIa type R,1700 nM
same,Kd,FcγRIIa type H,9200 nM
same,Kd,FcγRIIb [6],120 nM
B3,relative binding activity,human FcγRIIIa(F),2 % of GpH7-B3/GpL16-k0
